Data on one molecule can be found in patent US9623039B2, “Treatment and prevention of pathological conditions using iduna related techniques and compositions” (VALTED, LLC, priority 2010, dated 2017).

Data set [1] can be described thus: Middle cerebral artery occlusion. The class given is in vivo, mouse. The protocol: Middle Cerebral Artery Occlusion (MCAD): To occlude the middle cerebral artery, mice were anesthetized with 1.5-2% isoflurane and maintained at normothermic temperature. A 7-0 monofilament with an enlarged silicone tip was passed through the right internal carotid artery to the base of the middle cerebral artery. Occlusion was confirmed by laser-Doppler flowmetry with a probe placed on thinned skull over the lateral parietal cortex. After 60 min of occlusion, the filament was removed and reperfusion was verified. At 24 h of reperfusion, the brain was harvested, sectioned into five coronal slabs, and stained with the vital dye, triphenyltetrazolium chloride. Infarct area was measured on the anterior and posterior surfaces of each slab and integrated to obtain infarct volume with correction for tissue swelling. The investigator performing the surgery and analyzing infarct size was unaware of the genotype of the mouse.
Neurobehavioural Activity: Spontaneous motor activity was evaluated for 5 min by placing the animals in a mouse cage for 5 minutes. […] Neurological deficits were evaluated by an observer blinded to the treatment and genotype of the animals with a scale of 0-4 (0 no neurological deficit, 4 severe neurological deficit). […] Recordings were evaluated by an observer blinded to the treatment and genotype of the animals. […]

The test system of the next data set is PARP-1. The experiment in a line: PARP inhibition assay (32P-NAD incorporation into PAR polymer). The class given is biochemical. As to conditions: 32P-NAD incorporation into radiolabeled PAR polymer. The protocol: Because PARP-1 activation plays a prominent role in NMDA excitotoxicity we tested whether PARP-1 activity is directly affected by Iduna. PARP-1 activity was assessed by incorporation of biotinylated PAR onto histone proteins.
PARP Inhibition Assay: To evaluate the ability of Iduna to act as a PARP inhibitor, [^32P]-labeled automodified PARP-1 was synthesized in presence of GST, GST-Iduna or PARG, respectively. To purify the [^32P]-labeled automodified PARP-1, the reaction mixture was incubated with anti-PAR antibody for 4 h at 4° C. and then sequentially incubated with protein-G slurry for 1 h at 4° C. Samples were washed two times with PBS and the amount of [^32P]-labeled automodified PARP-1 was measured by LS 6500 Liquid Scintillation Counting System.

The subject of the next data set is MCF7 cells. The experiment in a line: Determination of apurinic/apyrimidinic (AP) sites. The class given is cell-based, human. The settings on record: 1 h. The protocol:
Determination of apurinic/apyrimidinic (AP) sites. The amount of AP sites in genomic DNA was monitored by a DNA damage quantification kit (BioVision). Briefly, cells were treated with either DMSO or 500 μM MNNG for 15 min, and then replaced with normal growth media. After 1 h, cells were scraped and harvested at 500×g for 5 min and washed once with PBS. Genomic DNA was isolated using a Biovision Genomic DNA Isolation Kit (BioVision) and then AP sites on the 0.5 μg of genomic DNA was labeled with biotin by the Aldehyde Reactive Probe (ARP) reagent (supplied with the DNA damage quantification kit) for 1 h at 37° C. To precipitate the biotin-tagged DNA, sample was mixed with TE buffer containing 2% glycogen and then sequentially incubated with ice cold 70% ethanol for 30 min at −20° C. […] To determine of the number of AP sites in DNA, samples were dissolved in TE buffer and then transferred into 96 well plate with DNA binding buffer (supplied with the DNA damage quantification kit). After 12 h, samples were washed five times with DNA washing buffer (supplied with the DNA damage quantification kit) and then biotin labeled AP sites were quantified using an avidin-biotin assay. Each sample and standards (supplied with a DNA damage quantification kit) were run in triplicate and the OD was measured at 650 nm using a 96-well plate reader (SpectraMax Plus384 Microplate Reader).

Another data set concerns cortical neurons. The experiment in a line: Calcium imaging and mitochondrial Ca2+ uptake. The class given is cell-based, mouse. The protocol:
Calcium Imaging: Neuronal cells were plated on 17 mm glass cover slips, pre-coated with poly-L-ornithine (0.1 mg/ml). On DIV 14, the cultures were loaded with calcium sensitive dye Fluo-5f (2.5 μM, dissolved in pleuronic acid/DMSO solution) for 45 min at 37° C. and thereafter placed on a thermostatically confocal microscopic stage (Carl Zeiss). HEPES balanced salt solution (HBSS: NaCl 137 mM, KCl 5 mM, HEPES 20 mM, glucose 10 mM, CaCl2 1.4 mM, NaHCO3 3 mM, Na2HPO4 0.6 mM, KH2PO4 0.4 mM, pH 7.4) was superfused to the cultures for 100 s to obtain a steady base-line. NMDA (500 μM for 5 min) was used to induce intracellular calcium influx. Florescence values were monitored at every 10 s and calculated using LSM 510 Meta software and represent the changes in cellular calcium.
Measurements of Mitochondrial Ca^2+-uptake Capacity: Extramitochondrial free Ca^2+ was monitored in the presence of isolated mitochondria or digitonin-permeabilized cells, using an indicator of extramitochondrial free Ca^2+ (Calcium green-5N, Invitrogen). […] Fluorescence was continuously monitored at an excitation/emission at 488/532 nm respectively. […] Ca^2+ uptake was monitored by addition of 50 μM CaCl2 to the assay medium using a Hamilton syringe.

B1: Iduna: novel NMDA-induced cell survival protein, PAR-dependent E3 ligase; 359 amino acids (protein)
chain: MEMAGCGEIDHSINMLPTNKKANESCSNTAPSLTVPECAICLQTCVHPVSLPCKHVFCYLCVKGASWLGKRCALCRQEIPEDFLDKPTLLSPEELKAASRGNGEYAWYYEGRNGWWQYDERTSRELEDAFSKGKKNTEMLIAGFLYVADLENMVQYRRNEHGRRRKIKRDIIDIPKKGVAGLRLDCDTNTVNLARESSADGADSGSAQTGASVQLAVPSSTRPLTSVDGQLTSPVTPSPDAGISLEDSFAHLQLSGDSIAERSHRGEGEEDHESPSSGRVPDTSVEETESDASSDSEDAPVVVAQHSLTQQRPLVPNGNQTVADQSDRSGTDRSVAGGGTMSVNVRSRRPDGQCTVIEV
Take B1: in data set [1] (Iduna transgenic mice vs wild type, 60 min occlusion), the “reduction of infarct volume” value was found to be 50%. Also, the “neurological function following stroke” value in data set [1] (Iduna-Tg mice vs WT) is “improved neurological function”. Further, the PARP-1 catalytic activity entry with PARP-1 was “fails to inhibit PARP-1 catalytic activity”. For the same molecule, the “increase in AP sites after MNNG” value in the data set on MCF7 cells is “completely prevented”. Also, the mitochondrial calcium uptake entry in the data set with cortical neurons (Calcium green-5N) is listed as “does not interfere with mitochondrial calcium uptake”. Moreover, in the data set on cortical neurons (fluo-5F, NMDA 500 μM 5 min), the NMDA-induced calcium influx entry is “does not interfere with NMDA-induced intercellular calcium influx”.
